Here are results for four variants from PMC8424649 (2021).

B1: GFP-FAN1, full-length FAN1 (FAN1^FL) [human] / MLH1 (endogenous, human) [human (endogenous in iPSCs, lymphoblastoid cells, U2OS, HEK293T, MSNs, HeLa)] (parent complex)
chain 1: MMSEGKPPDKKRPRRSLSISKNKKKASNSIISCFNNAPPAKLACPVCSKMVPRYDLNRHLDEMCANNDFVQVDPGQVGLINSNVSMVDLTSVTLEDVTPKKSPPPKTNLTPGQSDSAKREVKQKISPYFKSNDVVCKNQDELRNRSVKVICLGSLASKLSRKYVKAKKSIDKDEEFAGSSPQSSKSTVVKSLIDNSSEIEDEDQILENSSQKENVFKCDSLKEECIPEHMVRGSKIMEAESQKATRECEKSALTPGFSDNAIMLFSPDFTLRNTLKSTSEDSLVKQECIKEVVEKREACHCEEVKMTVASEAKIQLSDSEAKSHSSADDASAWSNIQEAPLQDDSCLNNDIPHSIPLEQGSSCNGPGQTTGHPYYLRSFLVVLKTVLENEDDMLLFDEQEKGIVTKFYQLSATGQKLYVRLFQRKLSWIKMTKLEYEEIALDLTPVIEELTNAGFLQTESELQELSEVLELLSAPELKSLAKTFHLVNPNGQKQQLVDAFLKLAKQRSVCTWGKNKPGIGAVILKRAKALAGQSVRICKGPRAVFSRILLLFSLTDSMEDEDAACGGQGQLSTVLLVNLGRMEFPSYTINRKTHIFQDRDDLIRYAAATHMLSDISSAMANGNWEEAKELAQCAKRDWNRLKNHPSLRCHEDLPLFLRCFTVGWIYTRILSRFVEILQRLHMYEEAVRELESLLSQRIYCPDSRGRWWDRLALNLHQHLKRLEPTIKCITEGLADPEVRTGHRLSLYQRAVRLRESPSCKKFKHLFQQLPEMAVQDVKHVTITGRLCPQRGMCKSVFVMEAGEAADPTTVLCSVEELALAHYRRSGFDQGIHGEGSTFSTLYGLLLWDIIFMDGIPDVFRNACQAFPLDLCTDSFFTSRRPALEARLQLIHDAPEESLRAWVAATWHEQEGRVASLVSWDRFTSLQQAQDLVSCLGGPVLSGVCRHLAADFRHCRGGLPDLVVWNSQSRHFKLVEVKGPNDRLSHKQMIWLAELQKLGAEVEVCHVVAVGAKSQSLS
chain 2: MSFVAGVIRRLDETVVNRIAAGEVIQRPANAIKEMIENCLDAKSTSIQVIVKEGGLKLIQIQDNGTGIRKEDLDIVCERFTTSKLQSFEDLASISTYGFRGEALASISHVAHVTITTKTADGKCAYRASYSDGKLKAPPKPCAGNQGTQITVEDLFYNIATRRKALKNPSEEYGKILEVVGRYSVHNAGISFSVKKQGETVADVRTLPNASTVDNIRSIFGNAVSRELIEIGCEDKTLAFKMNGYISNANYSVKKCIFLLFINHRLVESTSLRKAIETVYAAYLPKNTHPFLYLSLEISPQNVDVNVHPTKHEVHFLHEESILERVQQHIESKLLGSNSSRMYFTQTLLPGLAGPSGEMVKSTTSLTSSSTSGSSDKVYAHQMVRTDSREQKLDAFLQPLSKPLSSQPQAIVTEDKTDISSGRARQQDEEMLELPAPAEVAAKNQSLEGDTTKGTSEMSEKRGPTSSNPRKRHREDSDVEMVEDDSRKEMTAACTPRRRIINLTSVLSLQEEINEQGHEVLREMLHNHSFVGCVNPQWALAQHQTKLYLLNTTKLSEELFYQILIYDFANFGVLRLSEPAPLFDLAMLALDSPESGWTEEDGPKEGLAEYIVEFLKKKAEMLADYFSLEIDEEGNLIGLPLLIDNYVPPLEGLPIFILRLATEVNWDEEKECFESLSKECAMFYSIRKQYISEESTLSGQQSEVPGSIPNSWKWTVEHIVYKALRSHILPPKHFTEDGNILQLANLPDLYKVFERC

In this experiment the parent is B1. Briefly: GFP-Trap pull-down, quantified immunoblot; U2OS cell extracts; n = 5 biological replicates; parent: 100; read off a plot.
Regarding chain 1 Q123A, the percent of parent was about 110. Turning to chain 1 S126A, the percent of parent is about 10. In the case of chain 1 F129A, the percent of parent was about 5.

As to chain 1 Y128A, the percent of parent is about 1.
